# In the RNAGym collection of RNA variant scans (doi:10.7554/elife.90254):
# B1: LINE1-mini (parent)
# chain: GGCAGAGCUCAACACAGCGUGGCAAAGUGGCUGUGGCUAGACUGCC
# Variants of: B1
# Experiment: self-cleavage, relative activity (ratio to wild type); higher = more cleavage; in vitro, sequencing; the parent is a self-cleaving ribozyme
row,Variant,self-cleavage
1,G7U C10U,0.04
2,G22U C45A,0.88
3,C15U C46G,0.33
4,C13A C15U,0.12
5,C37G C45U,0.03
6,U28C C31G,0.16
7,G2A C18A,0.16
8,U9G A11U,0.03
9,C23G G35C,0.12
10,C31A C45G,0.06
11,G2U A26C,0.09
12,U34C C46A,0.16
13,G5U U9C,0.05
14,A25U A41C,0.07
15,A6G U9C,0.02
16,G33U G44U,0.07
17,G1C C31U,0.04
18,G17C U32C,0.14
19,U20C C45U,1.12
20,U32G C45U,0.12
21,U34G G35U,0.07
22,G30A C46U,1.33
23,U20C G35C,0.03
24,G7C C45U,0.16

row,Variant,self-cleavage
1,C13G C15U,0.15
2,A16G A26G,0.37
3,G19A C46A,0.81
4,G19C A24G,0.53
5,A14U G30C,0.14
6,A4C A39C,0.07
7,A12C C15U,0.03
8,A12C G30A,0.03
9,U38C C46G,0.64
10,A14C G19U,0.1
11,A26G C42A,0.08
12,U20C U28A,0.93
13,A11G C45G,0.03
14,C8G C31A,0.06
15,A14C C31G,0.03
16,G7C G29U,0.13
17,G19U U20A,0.86
18,G17A U43C,0.05
19,G19C U43C,0.03
20,G29A G35A,0.23
21,C13U A41U,0.15
22,C31G U38A,0.09
23,U9G C37G,0.05
24,C23G A24G,0.88

row,Variant,self-cleavage
1,C15U C45A,0.21
2,A4U G7C,0.18
3,C15G C46U,0.06
4,U9A G21A,0.3
5,G1U A16U,0.05
6,C10A A16C,0.04
7,C18U G40C,0.04
8,C3G G19C,0.16
9,A11C U43C,0.02
10,C8U G30C,0.26
11,G27U G40A,0.13
12,G33A A39G,0.09
13,A6U A11U,0.09
14,G27A C46U,2.06
15,G19A U32G,0.1
16,G5A A41U,0.08
17,G7U C31G,0.06
18,C18G C42U,0.05
19,A14U G21U,0.74
20,A6C C42U,0.23
21,C10A U20A,0.05
22,U9G G29U,0.07
23,C23A A24G,0.53
24,A26U U34C,0.18

row,Variant,self-cleavage
1,C13U G35C,0.22
2,C18G A41C,0.03
3,A24G U28G,0.45
4,U38A G44U,0.17
5,C15A U34A,0.59
6,A6G A26U,0.1
7,U20A A39G,0.06
8,G35A G36C,0.17
9,A4G G17A,0.06
10,A11C G33U,0.04
11,C3U U43G,0.2
12,U9A G36C,0.06
13,G33A A41U,0.11
14,A14U G19A,0.53
15,C18U C42U,0.17
16,U9C U20C,0.02
17,U20C U32C,0.05
18,A12G U34C,0.05
19,G2A U32A,0.14
20,G21U G22A,1.03
21,A4U A24G,0.26
22,A11G U43A,0.01
23,U28G G40A,0.12
24,G35A G40A,0.07

row,Variant,self-cleavage
1,G30A U34C,0.12
2,A16G A25C,0.06
3,G21A A39U,1.82
4,C3U C45A,0.2
5,G19C U34G,0.14
6,A14G C31G,0.04
7,C8A U20G,0.15
8,G7C A16U,0.3
9,C13U G36U,0.15
10,A25G G36C,0.04
11,G5A U34A,0.07
12,C8A A14C,0.18
13,C13U G44A,0.1
14,C8U C31G,0.17
15,U20C G40U,0.1
16,C18U A41G,0.26
17,A6C G17U,0.11
18,U9C A24U,0.05
19,G2C G19C,0.16
20,A12C C37A,0.02
21,U20C A39G,0.06
22,A11G C37G,0.03
23,A12U C15U,0.1
24,C3A G35U,0.59

row,Variant,self-cleavage
1,G19A A26C,0.52
2,C8G U32G,0.06
3,C10A A11C,0.02
4,U32A G40U,0.16
5,U9A G33A,0.11
6,U28C U43C,0.12
7,U28A U43G,0.03
8,C18U U32G,0.09
9,A12C U20C,0.01
10,G5A A24U,0.11
11,U20C A24U,0.67
12,U32A C46G,0.28
13,G40C A41G,0.07
14,G5A G36A,0.28
15,C3A G17C,0.31
16,A12G G33C,0.03
17,A11C A26C,0.03
18,U20G C31G,0.04
19,A24C G40U,0.11
20,A26C U43G,0.12
21,A14C A26G,0.06
22,G5A C13U,0.15
23,G19U G44C,0.31
24,A24C G30C,0.49

row,Variant,self-cleavage
1,U32A C37A,0.04
2,U9G C15U,0.17
3,A16U G33A,0.07
4,A6G C18A,0.11
5,C3G G21C,0.41
6,A16U G35U,0.04
7,U9C G22U,0.02
8,A16C G33U,0.05
9,C8G A11U,0.03
10,C15A G27A,0.15
11,A14U U20A,0.42
12,G1A G17A,0.15
13,G7C G35A,0.08
14,C8U A25G,0.13
15,A26G C37G,0.03
16,G2U G30C,0.1
17,G29A C46A,0.89
18,A39C G40U,0.11
19,A25G U34A,0.06
20,C42U U43G,0.15
21,G1C A16G,0.12
22,A16G A41G,0.15
23,A11G A12C,0.02
